Reference: paper PMC12851022 (2025)

Key:
[1] = target: T1, VHL (Homo sapiens, UniProt P40337); test: Alpha assay
[2] = target: T1, VHL; test: FRET

T1 sequence (P40337 whole entry): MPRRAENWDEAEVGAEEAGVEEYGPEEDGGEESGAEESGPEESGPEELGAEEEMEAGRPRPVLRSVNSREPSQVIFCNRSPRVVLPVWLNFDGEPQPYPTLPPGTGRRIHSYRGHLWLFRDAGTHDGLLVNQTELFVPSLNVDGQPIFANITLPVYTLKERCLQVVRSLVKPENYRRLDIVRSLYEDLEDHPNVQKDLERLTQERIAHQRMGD

B1: USP39 (protein)
chain: MSGRSKRESRGSTRGKRESESRGSSGRVKRERDREREPEAASSRGSPVRVKREFEPASAREAPASVVPFVRVKREREVDEDSEPEREVRAKNGRVDSEDRRSRHCPYLDTINRSVLDFDFEKLCSISLSHINAYACLVCGKYFQGRGLKSHAYIHSVQFSHHVFLNLHTLKFYCLPDNYEIIDSSLEDITYVLKPTFTKQQIANLDKQAKLSRAYDGTTYLPGIVGLNNIKANDYANAVLQALSNVPPLRNYFLEEDNYKNIKRPPGDIMFLLVQRFGELMRKLWNPRNFKAHVSPHEMLQAVVLCSKKTFQITKQGDGVDFLSWFLNALHSALGGTKKKKKTIVTDVFQGSMRIFTKKLPHPDLPAEEKEQLLHNDEYQETMVESTFMYLTLDLPTAPLYKDEKEQLIIPQVPLFNILAKFNGITEKEYKTYKENFLKRFQLTKLPPYLIFCIKRFTKNNFFVEKNPTIVNFPITNVDLREYLSEEVQAVHKNTTYDLIANIVHDGKPSEGSYRIHVLHHGTGKWYELQDLQVTDILPQMITLSEAYIQIWKRRDNDETNQQGA
modifications: USP39_PROTAC_V1
[1]
  Kd: 232 nM
[2]
  Kd: 12 nM
